Assay: soluble on expression in E. coli; label from the status in PepcDB or PDB records

Sequence	soluble on expression in E. coli
MNRLPNIAKPPQKSNQRKEKAPPEVPALIADKDRGTYYEKGRFLGKGGFAHCYELTNRATREVVAGKVVPKSMLVKQYQRDKMTQEVQIHRELGHINIVKLFNFFEDNLNVYITLELCARRSLMELHKRRKAVTEPEARYFTHQIVDGVLYLHDLNIIHRDMKLGNLFLNDDLVVKIGDFGLATTVNGDERKKTLCGTPNYIAPEVLNKAGHSFEVDIWAVGCILYILLFGQPPFESKSLEETYSRIRHNNYTIPSIATQPAASLIRKMLDPEPTRRPTAKQVQRDGFFKSGFMPTRLPVSCLTMVPKFGGHETSMMEENVAPRGVDARSQRPLNGRAGLSALPQHIVSNNADRERAQQQAAEATFREPEDAYLSQLFHQVAVLLEQRIPGLEEEEAALDGYQSPECLPVFWISKWVDYSDKYGIGYQLCDNSVGVLFNDNSRIMLDQAGNELTYIEKSNKEHYFSMHSGEMPGLLNKKVTLLKYFRSYMNDHLVKAGEGSEQRAGDDLARLPTLRVWFRTKSAIVLHLSNGTVQINFFNDHVKMMMCPLMQAVTFIDQNKRMLTYKLNNLQRNGCPEKFLHRLKYAKTMIERLMSDANVVSQNPARQPDMPRSMAAARSASAGSRGPNQAASHLPQSASGSNIHPRR	not soluble
MGSDKIHHHHHHMHSFHDAFSAPNAGNDTEAKRLPAKRRIRLKTAVLGVLLLASVAAQAEPRLTDLQYIGSHNSYHAGFAPSEATLLKQHDPAAFATLDYRHPPLTQQLDDGVRQLELDVFADAHGGRYAHPAIVEQIAKAGLPPAPASAPAGVMNKPGFKVLHVQDVDQRSTCQPLVTCLQEVRAWSQQHPGHLPIFILLETKQSPVQLSFPTVQPEPFDRKAMDALDAELRSVFRPGEYVSPDTVRGTARTLNAAVLAHGWPALRATRGKVVFLLDQRAAGASYLPGHPSLRGRVCFTNAEPGQDDAAFTERNDGPAEDITRLVQAGYLVRTRTDADLKEPARGDNRRRDAMLATGAQLLSTDFPAHEPARNGYVVRFDGDAVARCAPQLPRAHCEGVDLTH	not soluble
MGSDKIHHHHHHMTLDNHHCVQLVPLFEKLAEQDLTKVEKIVEHKKIKKGEIIISPDKEPLLVIVAQGALKISQLSQSGKEQLLRIIEAGDYEGEGALLGVTNGQLYGQAMIDSTICFLRQSDFETLLTTYPSLSLQLLKLNAKKYLAAEHQAGFLALDDVEARLAHYFLNLSATSDSIYFEIPMKLKELANYIGTSPETISRKIKVFEENKIISRQGRMIKLLDKEKLEDDFA	not soluble
MPKILWKSLHLCFPSNLTKCYSSPCIPPSSADPDGIIQPNRPSIVLLNNFNLLYHNDNHHHPHRVIDLPSSSTTTTPAATSSSSTSSYESDISPDVSAAFASRRFFFSSPGRSNAITDSPEPRSREFSDNYDDATITSTKKKKKKVYDNSVTTTTTRLISGGTAVTQHVDSPDPLTDFRRSMQEMIDAAIDAGELSRDPNDGYDFLDELLLTYLSLNPADTHKFVIRAFSDILVSLLSEERRIC	soluble
MAHHHHHHMALRRLVKMSTTAEECAAVSELFRQYRHPNLVPLTNVLVTDEFVMGSADVIMEYKFITGAKSLNEAFINEGKATEGLLWSFACQMVSLMRAFHETSTPLRGLHWTKILFVPVSSRFYFSGVGFMDVMEPKGSAHQSAALMKHDIQSLGLLLLQLSTGNSNAKPEDFTAQPAKGYSGIFWLLVKACIDGTADVVTLCRALGERMSMEVAHQEGHADRLISQCGKEAHNGRIMRLMIKLNFVLESLHDFPEHSAEANNRYALRLFSQYVFNQVDERHRTRLDWGHVFHSLNKLDCGSEELVQLIGNDESNTILVISYRDLRDTLERAFEQLQPPPNEGDVQPFTVTVGTTSATL	not soluble
GETQPESAAFTAPSTDNPIRINFNENPLGMSPKAQAAARDAVVKANRYAKNEILMLGNKLAAHHQVEAPSILLTAGSSEGIRAAIEAYASLEAQLVIPELTYGDGEHFAKIAGMKVTKVKMLDNWAFDIEGLKAAVAAYSGPSIVYLVNPNNPTGTITPADVIEPWIASKPANTMFIVDEAYAEFVNDPRFRSISPMITQGAENIILLKTFSKIHAMAGMRVGYAVAHPTVIALMGRYVAGEKINFSGVDAALASMNDSAFITYSKKSNDVSRQILLKALEDLKLPYLPSEGNFVFHQLVVPLKDYQTHMADAGVLIGRAFPPADNWCRISLGTPQEMQWVADTMREFRKKSWI	soluble
MGSDKIHHHHHHMMKQIIAMAGGGFSMEPDNLSLDQYILNQSKREQHRICFLPTASGDSQNYIQRFYHAFQTLDCVPSHLSLFKPPSSDLVSFVMEMDVIYVGGGNTRNLLVLWKEWGLDHILREAWKNGVVVAGISAGAICWFEEGVTDSAGPLTSLKSLGFLQGSFCPHYDGEKDRRPAYHQLISNKFLCSGYAADDGAALHFINDQLFQTVSSRSGAKAYRVMMAEHEIAEIPLPVKYVRVKLAEYYLYSSFFQIDFMIR	not soluble
METQLSVQLGLDSLLTDFGLESVMNKQQQLFANMGLSDIGAPTPSTAIPVPNAHLHPSMVAGSDPSNPVVGFGFGSPSSTTSSSPPLSNSPTIEQQQHAQLTAMMQGIMSNNNVAVSNGSGVQVASVPAVHCSGCKSNETATSFCQDCNANLCDNCTMAHKFMHCFADHRVVSLTTPGTGSSSSSTSSSSSASSTSSHQVPSLGGKQSPDSMMLGSGKRSVLCLQHRASELVFFCVSCNLAICRDCTVSDHPSGTHQYELIADVADKQMLKMEQLIADARSKHADMLDMFKQVDNKQQVLTASLHNAHAQLEETVSNLINVIQDQKKTLAKDIDNAFAAKQIQLTMVDKRIQSMADKLSQTIEFSRRLMSFASPAEVMVFKQLLDTRLQLFLGFNPDTSGVLMTPCEIEYLGAAGLFNNSASTVSQLLGSVHGGSPINNAPAANDFLMPQAGLAPIGRAQSRIIPIEQNQLARSPPHHIAGSLPMNAYSDSNLLRPNKDFGGSSQSLGPFNPLGASVPGAAADPFSSQYDKWSLGVEPSVGGLLEGGNVDEEKFQTLFPPSRSQIKRQKMIYHCKFGEFGVMEGQFTEPSGVAVNGQGDIVVADTNNHRIQVFDKEGRFKFQFGECGKRDGQLLYPNRVAVNRTTGDFVVTERSPTHQIQVYNQYGQFLRKFGANILQHPRGVCVDSKGRIIVVECKVMRVIIFDMFGNILQKFSCSRYLEFPNGVCTNDKNEILISDNRAHCIKVFSYEGQYLRQIGGEGVTNYPIGVGINSLGEVVVADNHNNFNLTVFSQDGTMIGALESRVKHAQCFDVALVDDGSVVLASKDYRLYLYRFLPATSGQSTSSASSQI	not soluble
MKLARFLAKGRVHQGVYREGLLLDEAGEAHRPEDVTWLLPFTPGKILGVALNYADHAEELGLSRPEEPALFWKPNTSLLPHKGVVLYPKGARFVHYEVELAVVVGRPMKRVRAKDALDYVLGYTIANDLVARDYVTNTFRPPIRAKGRDTFLPLGPFLVVEEVEDPQDLWLRAYVNGELRQEGHTSRMLYSVAELLEFISEFMTLEPYDVLLTGTPKGISQVRPGDVMRLEIEGLGALENPIEEEP	soluble
MWDERFSQSEYVYGTEPNDFLVSVANQIPQGKILCLAEGEGRNACFLASLGYEVTAVDQSSVGLAKAKQLAQEKGVKITTVQSNLADFDIVADAWEGIVSIFCHLPSSLRQQLYPKVYQGLKPGGVFILEGFAPEQLQYNTGGPKDLDLLPKLETLQSELPSLNWLIANNLERNLDEGAYHQGKAALIQLLGQKLEHHHHHH	soluble
MTVDDIMVPRSEIIGIDINDDWKSILRQLSHSPHGRIVLYRDSLDDAISMLRVREAWRLMSEKKEFTKETMLRAADEIYFVPEGTPLSTQLVKFQRNKKKVGLVVNEYGDIQGLVTVEDILEEIVGDFTTSMSPTLAEEVTPQNDGSVIIDGTANVREINKAFNWHLPEDDARTVNGVILEALEEIPVAGTRVRIGKYDIDILDVQDNMIKQVKVFPVKPLRESVAE	not soluble
MLTLLGKIAHFREPLSRQLSLSDTNVTPQISRCAKLNLSVKQKKLLRQSFNAMNSGGTFLKLMEKIFRRLETKCPDMRSIFLTTAFVNSLSRERQTPPLVKTEYDHCKCMVGIFERLIENLENINEQLTMIRHYGEKHAQMAESGFTGAMIEQFGEISVFVIGSQDVVKFNHETVKAWRLLLACVTDEMKVGFDRMSRINGRRNSCNPPSTVPSGN	not soluble
